Experimental data taken from US20220332804A1 (CSL INNOVATION, published 2022).

How the values were obtained:
Experiment in all cases: SPR, KD relative to WT C2;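 note: biacore SPR at 37 °C, anti-C2 mAbs captured via immobilised goat anti-human IgG, C2 alanine or serine surface mutants as analytes, 1:1 model fitted, double-referenced sensograms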
human C2 K721A = target: T1, human C2 K721A (human, UniProt P06681 21-752)
T1 sequence: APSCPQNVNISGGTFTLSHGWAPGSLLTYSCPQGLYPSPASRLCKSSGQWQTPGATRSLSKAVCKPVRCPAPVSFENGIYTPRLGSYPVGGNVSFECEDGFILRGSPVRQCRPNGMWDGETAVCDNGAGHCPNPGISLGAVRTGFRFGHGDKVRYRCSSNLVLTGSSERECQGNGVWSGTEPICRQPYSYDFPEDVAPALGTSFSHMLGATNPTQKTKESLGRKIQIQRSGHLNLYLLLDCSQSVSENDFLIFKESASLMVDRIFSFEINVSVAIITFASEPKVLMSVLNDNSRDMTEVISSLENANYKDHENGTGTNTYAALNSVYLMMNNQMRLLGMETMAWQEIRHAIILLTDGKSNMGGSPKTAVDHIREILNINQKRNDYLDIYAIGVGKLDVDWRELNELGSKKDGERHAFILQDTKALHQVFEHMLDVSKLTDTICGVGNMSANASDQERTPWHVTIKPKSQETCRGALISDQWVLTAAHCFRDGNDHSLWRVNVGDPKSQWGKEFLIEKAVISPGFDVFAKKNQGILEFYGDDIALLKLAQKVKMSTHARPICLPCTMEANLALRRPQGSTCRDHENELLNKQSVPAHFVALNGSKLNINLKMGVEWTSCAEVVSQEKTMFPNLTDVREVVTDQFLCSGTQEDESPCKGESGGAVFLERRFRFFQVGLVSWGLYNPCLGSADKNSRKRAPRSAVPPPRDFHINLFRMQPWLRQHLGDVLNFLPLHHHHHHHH

human C2 N424A = target: T2, human C2 N424A (human, UniProt P06681 21-752)
T2 sequence: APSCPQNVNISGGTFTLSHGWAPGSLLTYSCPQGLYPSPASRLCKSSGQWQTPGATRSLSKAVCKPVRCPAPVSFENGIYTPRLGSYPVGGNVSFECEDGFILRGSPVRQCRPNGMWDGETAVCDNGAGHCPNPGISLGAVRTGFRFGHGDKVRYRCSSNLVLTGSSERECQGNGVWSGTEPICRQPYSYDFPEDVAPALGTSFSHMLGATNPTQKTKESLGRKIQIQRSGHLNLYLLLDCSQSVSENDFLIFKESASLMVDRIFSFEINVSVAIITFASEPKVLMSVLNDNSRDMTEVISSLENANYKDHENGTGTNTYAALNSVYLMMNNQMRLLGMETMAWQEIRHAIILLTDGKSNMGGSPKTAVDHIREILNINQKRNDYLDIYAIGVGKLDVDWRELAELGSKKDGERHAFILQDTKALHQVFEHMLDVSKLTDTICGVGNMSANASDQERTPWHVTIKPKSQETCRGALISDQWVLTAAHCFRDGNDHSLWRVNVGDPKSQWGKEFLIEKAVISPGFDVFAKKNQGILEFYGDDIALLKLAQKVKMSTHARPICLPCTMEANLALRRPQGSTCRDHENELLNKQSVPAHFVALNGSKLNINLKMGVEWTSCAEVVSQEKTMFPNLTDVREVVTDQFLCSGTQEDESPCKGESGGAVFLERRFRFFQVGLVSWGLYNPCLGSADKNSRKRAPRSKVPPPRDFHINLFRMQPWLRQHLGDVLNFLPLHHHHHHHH

human C2 G466A = target: T3, human C2 G466A (human, UniProt P06681 21-752)
T3 sequence: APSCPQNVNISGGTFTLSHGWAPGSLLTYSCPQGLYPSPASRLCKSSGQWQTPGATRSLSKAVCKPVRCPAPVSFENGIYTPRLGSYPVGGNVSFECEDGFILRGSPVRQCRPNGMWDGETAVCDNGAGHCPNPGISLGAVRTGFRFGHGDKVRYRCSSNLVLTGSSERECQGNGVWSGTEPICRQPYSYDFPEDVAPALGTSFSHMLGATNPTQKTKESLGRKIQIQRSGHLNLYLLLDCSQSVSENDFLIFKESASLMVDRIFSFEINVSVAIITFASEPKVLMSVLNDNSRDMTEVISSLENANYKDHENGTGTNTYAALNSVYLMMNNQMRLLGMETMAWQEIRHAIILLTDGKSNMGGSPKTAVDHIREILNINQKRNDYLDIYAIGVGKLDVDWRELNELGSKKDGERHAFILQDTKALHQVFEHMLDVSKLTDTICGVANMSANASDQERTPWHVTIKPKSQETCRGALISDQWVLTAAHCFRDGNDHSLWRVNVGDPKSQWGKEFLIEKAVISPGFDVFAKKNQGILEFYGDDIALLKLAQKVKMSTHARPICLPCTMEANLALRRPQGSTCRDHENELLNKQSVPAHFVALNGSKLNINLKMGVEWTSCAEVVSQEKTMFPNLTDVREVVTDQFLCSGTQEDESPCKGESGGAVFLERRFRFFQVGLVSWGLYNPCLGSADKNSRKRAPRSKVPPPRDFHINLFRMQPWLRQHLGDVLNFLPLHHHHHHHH

human C2 K487A = target: T4, human C2 K487A (human, UniProt P06681 21-752)
T4 sequence: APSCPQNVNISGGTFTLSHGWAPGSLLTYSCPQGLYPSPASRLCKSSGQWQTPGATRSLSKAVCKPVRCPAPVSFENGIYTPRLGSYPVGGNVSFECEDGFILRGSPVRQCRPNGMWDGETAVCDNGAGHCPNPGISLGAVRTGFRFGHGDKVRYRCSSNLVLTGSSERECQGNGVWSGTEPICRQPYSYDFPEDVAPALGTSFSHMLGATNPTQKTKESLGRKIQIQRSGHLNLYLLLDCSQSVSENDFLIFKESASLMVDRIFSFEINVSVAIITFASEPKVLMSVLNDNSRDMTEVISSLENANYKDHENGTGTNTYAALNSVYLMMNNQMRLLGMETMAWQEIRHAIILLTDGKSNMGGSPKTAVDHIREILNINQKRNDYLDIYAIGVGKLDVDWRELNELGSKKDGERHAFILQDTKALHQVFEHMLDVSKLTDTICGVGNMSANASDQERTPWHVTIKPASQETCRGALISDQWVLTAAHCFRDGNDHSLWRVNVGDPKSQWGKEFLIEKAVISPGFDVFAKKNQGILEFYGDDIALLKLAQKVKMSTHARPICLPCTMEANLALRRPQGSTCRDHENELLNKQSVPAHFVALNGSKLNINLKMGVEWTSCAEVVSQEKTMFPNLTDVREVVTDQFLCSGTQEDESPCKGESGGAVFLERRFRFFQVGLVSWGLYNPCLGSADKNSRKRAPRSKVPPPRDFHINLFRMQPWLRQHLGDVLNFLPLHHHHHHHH

B1: RF16-226 (antibody, human IgG4 S228P, lambda)
heavy: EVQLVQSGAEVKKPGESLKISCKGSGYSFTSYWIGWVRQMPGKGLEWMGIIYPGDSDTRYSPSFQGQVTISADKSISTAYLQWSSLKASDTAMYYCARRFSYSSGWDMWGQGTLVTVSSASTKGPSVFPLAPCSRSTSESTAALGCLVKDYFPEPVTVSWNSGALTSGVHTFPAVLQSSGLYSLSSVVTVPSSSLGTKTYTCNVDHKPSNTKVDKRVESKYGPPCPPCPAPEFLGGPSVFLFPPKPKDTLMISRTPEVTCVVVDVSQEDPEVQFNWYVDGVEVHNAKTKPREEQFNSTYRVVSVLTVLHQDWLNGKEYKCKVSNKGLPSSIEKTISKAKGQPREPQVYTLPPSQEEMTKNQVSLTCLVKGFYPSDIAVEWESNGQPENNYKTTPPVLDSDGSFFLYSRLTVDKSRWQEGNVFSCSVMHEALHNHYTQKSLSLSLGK
light: SYELTQPPSVSVSPGQTARITCSGDALTSKYVAWYQQKSGLAPLLVIYEDTRRPSGIPAKFSGSSSGSVATLTISGAHGDDEADYYCYSTDASGHQRVFGGGTKLTVLSQPKAAPSVTLFPPSSEELQANKATLVCLISDFYPGAVTVAWKADGSPVKAGVETTKPSKQSNNKYAASSYLSLTPEQWKSHRSYSCQVTHEGSTVEKTVAPTECS
notes: pH-dependent anti-C2 antibody from a phage display library; also called WT
Question: How did the Fold diff (human C2 K721A) turn out when B1 was run?
Answer: 10 fold

Question: And the Fold diff (human C2 N424A)?
Answer: 0 fold

Question: What about the Fold diff (human C2 G466A) of the same binder?
Answer: 3 fold

Question: What about the Fold diff (human C2 K487A) of the same binder?
Answer: 9 fold
